Results from paper PMC10629212, “Active Site Loop Engineering Abolishes Water Capture in Hydroxylating Sesquiterpene Synthases” (ACS Catalysis, 2023).
Numbering of substitutions follows the chain as printed. In names and notes the source's numbering stands.

B1: PTS (patchoulol synthase) (Pogostemon cablin; E461S/K458R/K459R/R460G) (protein)
chain: MELYAQSVGVGAASRPLANFHPCVWGDKFIVYNPQSCQAGEREEAEELKVELKRELKEASDNYMRQLKMVDAIQRLGIDYLFVEDVDEALKNLFEMFDAFCKNNHDMHATALSFRLLRQHGYRVSCEVFEKFKDGKDGFKVPNEDGAVAVLEFFEATHLRVHGEDVLDNAFDFTRNYLESVYATLNDPTAKQVHNALNEFSFRRGLPRVEARKYISIYEQYASHHKGLLKLAKLDFNLVQALHRRELSEDSRWWKTLQVPTKLSFVRDRLVESYFWASGSYFEPNYSVARMILAKGLAVLSLMDDVYDAYGTFEELQMFTDAIERWDASCLDKLPDYMKIVYKALLDVFEEVDEELIKLGAPYRAYYGKEAMKYAARAYMEEAQWREQKHKPTTKEYMKLATKTCGYITLIILSCLGVEEGIVTKEAFDWVFSRPPFIEATLIIARLVNDITGHEFERRGSHVRTAVECYMEEHKVGKQEVVSEFYNQMESAWKDINEGFLRPVEFPIPLLYLILNSVRTLEVIYKEGDSYTHVGPAMQNIIKQLYLHPVPY
notes: recombinant purified; construct details only in Supporting Information
B2: PTS (patchoulol synthase) (Pogostemon cablin; Y525F) (protein)
chain: B1 chain with R458K, R459K, G460R, S461E, Y525F
notes: as for B1
B3: PTS (patchoulol synthase) (Pogostemon cablin; C405A) (protein)
chain: B1 chain with C405A, R458K, R459K, G460R, S461E
notes: as for B1
B4: PTS (patchoulol synthase) (Pogostemon cablin) (protein)
chain: B1 chain with R458K, R459K, G460R, S461E
notes: as for B1
B5: PTS (patchoulol synthase) (Pogostemon cablin; Y531F) (protein)
chain: B1 chain with R458K, R459K, G460R, S461E, Y531F
notes: as for B1
B6: PTS (patchoulol synthase) (Pogostemon cablin; Y525A) (protein)
chain: B1 chain with R458K, R459K, G460R, S461E, Y525A
notes: as for B1
B7: Gd11olS (germacradiene-11-ol synthase) (Streptomyces coelicolor A3(2)) (protein)
chain: MTQQPFQLPHFYLPHPARLNPHLDEARAHSTTWAREMGMLEGSGVWEQSDLEAHDYGLLCAYTHPDCDGPALSLITDWYVWVFFFDDHFLEKYKRSQDRLAGKAHLDRLPLFMPLDDAAGMPEPRNPVEAGLADLWTRTVPAMSADWRRRFAVATEHLLNESMWELSNINEGRVANPVEYIEMRRKVGGAPWSAGLVEYATAEVPAAVAGTRPLRVLMETFSDAVHLRNDLFSYQREVEDEGELSNGVLVLETFFGCTTQEAADLVNDVLTSRLHQFEHTAFTEVPAVALEKGLTPLEVAAVGAYTKGLQDWQSGGHEWHMRSSRYMNKGERPLAGWQ
notes: likely N-terminal germacradienol synthase domain of the bifunctional geosmin synthase (as in PDB 5DZ2); recombinant purified
B8: Gd11olS (germacradiene-11-ol synthase) (Streptomyces coelicolor A3(2); D240G/E239R/E241S/V238R) (protein)
chain: B7 chain with V238R, E239R, D240G, E241S
notes: as for B7

Substrate: CC(C)=CCC/C(C)=C/CC/C(C)=C/CO[P@@](=O)(O)OP(=O)(O)O
Experiment: steady-state kinetics of sesquiterpene formation (details in Supporting Information)
Assay type: biochemical, Pogostemon cablin
Conditions: Mg2+-dependent enzyme; conditions in Supporting Information
From the text: steady-state kinetics of sesquiterpene formation (details in Supporting Information) on PTS (patchoulol synthase)

| Protein | Km [µM] |
| --- | --- |
| B1 | 1.54 ± 0.16 |
| B2 | 4.8 ± 1.26 |
| B3 | 0.67 ± 0.09 |
| B4 | 0.68 ± 0.14 |
| B5 | 0.37 ± 0.09 |
| B6 | 5.27 ± 1.22 |

Substrate: CC(C)=CCC/C(C)=C/CC/C(C)=C/CO[P@@](=O)(O)OP(=O)(O)O
Experiment: as above
Assay type: biochemical, Streptomyces coelicolor
Conditions: Mg2+-dependent enzyme; conditions in Supporting Information
Remark: another data set of the same source
From the text: steady-state kinetics of sesquiterpene formation (details in Supporting Information) on Gd11olS (germacradiene-11-ol synthase)

| Protein | Km [µM] |
| --- | --- |
| B7 | 0.45 ± 0.08 |
| B8 | 6.02 ± 1.25 |
